Among the data in the supplement of paper PMC6379048 are EC50 values, retold here.

Common to all, as to experiment: EC50 of free RNA motif oligo competing protein binding to immobilised probe
Series [1] addresses T1, SKIV2L2 (UniProt P42285).
T1 sequence: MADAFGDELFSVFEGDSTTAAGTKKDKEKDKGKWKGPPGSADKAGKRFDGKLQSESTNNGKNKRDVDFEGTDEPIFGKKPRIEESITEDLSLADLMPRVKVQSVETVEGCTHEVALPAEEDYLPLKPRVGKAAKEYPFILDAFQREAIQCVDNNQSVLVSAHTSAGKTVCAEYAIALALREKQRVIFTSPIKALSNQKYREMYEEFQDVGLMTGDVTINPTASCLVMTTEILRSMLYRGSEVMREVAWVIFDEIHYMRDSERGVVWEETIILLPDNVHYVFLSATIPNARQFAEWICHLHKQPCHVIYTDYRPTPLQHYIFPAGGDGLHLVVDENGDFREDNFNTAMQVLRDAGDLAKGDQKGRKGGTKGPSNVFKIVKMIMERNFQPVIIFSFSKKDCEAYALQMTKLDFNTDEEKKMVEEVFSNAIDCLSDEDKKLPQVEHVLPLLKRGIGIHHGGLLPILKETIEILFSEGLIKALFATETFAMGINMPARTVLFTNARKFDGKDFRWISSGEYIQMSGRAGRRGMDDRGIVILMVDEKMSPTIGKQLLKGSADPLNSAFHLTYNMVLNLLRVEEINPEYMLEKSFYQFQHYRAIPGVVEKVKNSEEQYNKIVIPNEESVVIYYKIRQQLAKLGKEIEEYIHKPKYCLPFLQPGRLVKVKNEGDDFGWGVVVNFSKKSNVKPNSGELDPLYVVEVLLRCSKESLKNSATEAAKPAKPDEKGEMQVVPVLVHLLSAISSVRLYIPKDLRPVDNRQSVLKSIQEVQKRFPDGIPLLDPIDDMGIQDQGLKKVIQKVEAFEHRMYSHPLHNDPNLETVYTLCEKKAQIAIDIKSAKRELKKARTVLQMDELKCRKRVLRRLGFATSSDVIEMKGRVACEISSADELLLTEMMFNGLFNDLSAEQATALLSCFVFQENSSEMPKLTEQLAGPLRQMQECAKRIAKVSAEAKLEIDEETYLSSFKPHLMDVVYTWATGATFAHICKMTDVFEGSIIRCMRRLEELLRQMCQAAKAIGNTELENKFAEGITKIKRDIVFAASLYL
How it is done:
(§1)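 Competition-binding assay: HEK293-FT cell lysate (2.5 mg protein) pre-incubated 1 h at 4°C with free motif-containing RNA oligos (0 to 30 µM, 12 doses), then pulled down with the same 5'-amino-C6 RNA oligos immobilised on NHS-Sepharose beads (30 min, 4°C). Bound proteins were quantified by label-free LC-MS/MS and normalised to the water control. EC50 came from a four-parameter log-logistic fit; Kd = EC50 x depletion factor. Random/reversed control probes are dropped.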

Series [2] addresses T2, XRN2 (UniProt Q9H0D6).
T2 sequence: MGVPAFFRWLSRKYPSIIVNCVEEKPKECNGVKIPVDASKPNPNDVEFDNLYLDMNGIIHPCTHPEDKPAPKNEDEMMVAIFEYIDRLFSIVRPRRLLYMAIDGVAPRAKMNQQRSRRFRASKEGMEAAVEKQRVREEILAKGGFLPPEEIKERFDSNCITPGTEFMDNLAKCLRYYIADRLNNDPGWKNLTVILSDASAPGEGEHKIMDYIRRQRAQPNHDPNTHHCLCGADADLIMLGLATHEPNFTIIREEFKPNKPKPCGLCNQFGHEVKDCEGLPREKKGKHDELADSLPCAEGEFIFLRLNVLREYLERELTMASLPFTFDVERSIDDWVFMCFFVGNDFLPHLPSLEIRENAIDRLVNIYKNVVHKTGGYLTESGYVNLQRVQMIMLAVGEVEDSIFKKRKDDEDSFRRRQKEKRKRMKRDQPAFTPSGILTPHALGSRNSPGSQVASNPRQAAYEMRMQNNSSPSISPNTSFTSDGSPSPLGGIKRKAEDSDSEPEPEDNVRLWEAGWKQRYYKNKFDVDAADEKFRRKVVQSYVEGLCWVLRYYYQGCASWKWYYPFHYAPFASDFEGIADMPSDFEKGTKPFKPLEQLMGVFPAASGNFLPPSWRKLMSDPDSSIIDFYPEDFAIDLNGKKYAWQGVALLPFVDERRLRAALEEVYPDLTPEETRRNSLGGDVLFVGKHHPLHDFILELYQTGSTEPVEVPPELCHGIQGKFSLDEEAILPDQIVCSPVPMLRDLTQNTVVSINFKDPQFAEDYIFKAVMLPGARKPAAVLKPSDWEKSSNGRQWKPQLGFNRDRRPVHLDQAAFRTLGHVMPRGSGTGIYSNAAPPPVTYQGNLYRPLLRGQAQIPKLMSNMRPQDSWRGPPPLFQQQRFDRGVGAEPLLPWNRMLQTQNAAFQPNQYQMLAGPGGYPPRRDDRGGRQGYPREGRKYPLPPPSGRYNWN
The method, then: as §1

Series [3] addresses T3, NKRF (UniProt O15226).
T3 sequence: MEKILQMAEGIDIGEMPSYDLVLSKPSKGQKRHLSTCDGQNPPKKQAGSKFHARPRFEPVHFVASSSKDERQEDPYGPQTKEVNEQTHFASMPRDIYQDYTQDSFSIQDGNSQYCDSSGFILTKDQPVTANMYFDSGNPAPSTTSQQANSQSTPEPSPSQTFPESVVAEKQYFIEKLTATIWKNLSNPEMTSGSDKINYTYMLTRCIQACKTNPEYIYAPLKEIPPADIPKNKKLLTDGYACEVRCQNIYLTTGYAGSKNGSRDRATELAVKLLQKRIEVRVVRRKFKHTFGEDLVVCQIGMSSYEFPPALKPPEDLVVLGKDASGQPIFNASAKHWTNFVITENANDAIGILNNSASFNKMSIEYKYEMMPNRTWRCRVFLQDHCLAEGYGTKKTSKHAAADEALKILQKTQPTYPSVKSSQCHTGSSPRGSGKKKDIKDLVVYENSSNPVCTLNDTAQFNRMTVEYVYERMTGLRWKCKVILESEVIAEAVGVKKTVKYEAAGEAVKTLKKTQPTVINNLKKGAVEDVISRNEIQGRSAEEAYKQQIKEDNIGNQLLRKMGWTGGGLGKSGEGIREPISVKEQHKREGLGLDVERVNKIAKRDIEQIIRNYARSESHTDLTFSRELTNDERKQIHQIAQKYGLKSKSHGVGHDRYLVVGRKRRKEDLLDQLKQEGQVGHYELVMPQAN
How it is done:
as §1

Consider AAUAAA, for which the EC50 in series [1] amounted to 2880 nM; in series [2], 843 nM; in series [3], 1180 nM.

Regarding CUGUCCU, the EC50 in series [1] is 3470 nM; in series [2] it was 147 nM; in series [3], 554 nM.

UAUUUAU: the EC50 in series [1] amounted to 619 nM; in series [2], 409 nM; in series [3], 380 nM.

As a reminder, the EC50 is the concentration that produces a half-maximal response. A higher EC50 goes with a need for much substance.
